Experimental data as given in patent US20230374088A1 (GENERAL HOSPITAL, published 2023).
Residue numbers refer to the chain shown, from its start. Names may count otherwise. Values belong to the binder of their own block, whether it stands above or below them.

Columns and labels:
Assay in all cases: pull-down on anti-FLAG beads, anti-c-myc blot, Expi293F cells
[1] = molecular target: T1, c-Myc-Gli2 (418-594aa) ZF3-mut (H503A, R516A, K521A) (human, UniProt P10070 418-594)
T1 construct: also called ZF-3 (H503A/R516A/K521A); not shown: c-myc tag from pCMV-BICEP-4 (MCS2)
T1 sequence (looked up): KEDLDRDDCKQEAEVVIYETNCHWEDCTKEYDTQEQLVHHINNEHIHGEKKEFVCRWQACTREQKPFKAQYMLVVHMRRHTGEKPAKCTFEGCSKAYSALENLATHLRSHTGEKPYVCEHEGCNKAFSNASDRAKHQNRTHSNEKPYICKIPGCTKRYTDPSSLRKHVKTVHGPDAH
Text: (§1) Immunoprecipitation (IP) using anti-FLAG magnetic beads. Input (cell lysate), FT (flow through), wash and beads samples were immunoblotted (IB) with anti c-Myc antibody to detect Gli2. […] The blots are representative images of a minimum of three repeats. Gli2-ZF mutants are as follows: ZF2-mut (H493A, R496A), ZF3-mut (H503A, R516A, K521A), ZF4-mut (R550A, K552A, R556A). Kif7-CC mutants are as follows: S1-mut (E500A, E501A, E502A, D505A), S2-mut (E511A, E515A), S3-mut1 (E526A, E529A) and S3-mut2 (E530A, R535A).
(§2) To narrow down the residues that participate in binding, we analyzed the model of the Kif7-SCC:Gli2-ZF complex using PDBsum server (De Beer et al., Nucleic acids research, 42, D292-D296, 2014). We performed alanine scanning mutagenesis of the charged residues on Gli2-ZF that came up as part of the binding interface in the PDBsum analysis and analyzed their binding with pull-down assay (FIG. 3D). […] We systematically mutated the residues to alanine and performed the pull-down assay with Gli2-ZF.

[2] = molecular target: T2, c-Myc-Gli2 (418-594aa) ZF2-mut (H493A, R496A) (human, UniProt P10070 418-594)
T2 construct: also called Gli2 ZF-2 (H493A/R496A); not shown: c-myc tag from pCMV-BICEP-4 (MCS2)
T2 sequence (looked up): T1 sequence (looked up) with H76A, R79A, A86H, A99R, A104K
Text: as §1, §2

[3] = molecular target: T3, c-Myc-Gli2 (418-594aa) (human, UniProt P10070 418-594)
T3 construct: Expressed in Expi293F cells for the pull-down; also called Gli2-ZF (in the pull-down); not shown: c-myc tag from pCMV-BICEP-4 (MCS2), N-terminal by the name
T3 sequence (looked up): T1 sequence (looked up) with A86H, A99R, A104K
Text: as §1, §2

binding result [1]: no binding | binding result [2]: no binding
B1: FLAG-Kif7-CC (460-600aa) (other)
chain: PDSGIESASVEDQAAQGAGGRKEDEGAQQLLTLQNQVARLEEENRDFLAALEDAMEQYKLQSDRLREQQEEMVELRLRLELVRPGWGGPRLLNGLPPGSFVPRPHTAPLGGAHAHVLGMVPPACLPGDEVGSEQRGEQVTN
notes: Expressed in Expi293F cells for the pull-down; also called Kif7(460-600aa); not shown: FLAG tag from pCMV-BICEP-4 (MCS1), N-terminal by the name

binding result [3]: no binding
B2: FLAG-Kif7-CC (460-600aa) S1-mut (E500A, E501A, E502A, D505A) (other)
chain: B1 chain with E41A, E42A, E43A, D46A
notes: also called Kif7-CC S1; not shown: FLAG tag from pCMV-BICEP-4 (MCS1)
